# Measurements reported in PMC516023 (2004).
# B1: HIV-1 Vpr, wild type [HIV-1] / GST-fused di-W peptide WWSFKSV (GST-B4) (parent complex)
# chain 1: MEQAPEDQGPQREPHNEWTLELLEELKNEAVRHFPRIWLHGLGQHIYETYGDTWAGVEAIIRILQQLLFIHFRIGCRHSRIGVTRQRRARNGASRS
# chain 2: WWSFKSV
# Variants of: B1
# Assay: GST pull-down, autoradiography scanning; parent: 100; read off a plot
row,Variant,percent of parent
1,"chain 1 R87A, chain 1 R88A",~71%
2,chain 1 R80A,~88%
3,chain 1 F34I,~80%
4,chain 1 E21K,~7%
5,chain 1 R62P,~4%
6,chain 1 L23F,~10%
7,chain 1 I63K,~80%
8,chain 1 A30F,~6%
9,chain 1 E25K,~86%
